Measurements published in the supplement of paper PMC12764529.
± gives the half width of the 95% confidence interval.

Assay: folding stability dG unfold (combined trypsin and chymotrypsin); higher = more stable
Procedure: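 Folding stability of de novo designed mini-proteins (<80 aa, no Cys; designed by TrROS, TrMRF, ProteinMPNN and the joint model) was measured by cDNA display proteolysis with trypsin and chymotrypsin. Each protease was used at 11 concentrations in a threefold dilution series plus a no-protease condition. K50 was inferred by Bayesian fitting of sequencing counts, and dG unfold was derived against a sequence-predicted unfolded-state K50 (Tsuboyama et al. method). Sequences shown include variable-length N-terminal GS-type padding (SAGGSAGG...) inside a display construct carrying a PA tag. Rows were kept only if the AF2 dimer inter-PAE was >15, to exclude likely homo-oligomers.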

**Q.** For “SAGGSAGGSLKPGAPVMYRIRNPENGRKFPFQIKIKEDGGIDIEYPSNGKTMTIPPDNIEPVPSAGGSAGGS [r12_726_TrROS]”, which “folding stability dG unfold” value is on record?
**A.** < -1 kcal/mol

**Q.** Which “folding stability dG unfold” value does the source give for “SAGGSAGGSLRPGEPFKIYSPNGEKFPFKIESVEVDPDGEIPLTITNPNGKPIGPFPYRIKPLSAGGSAGGS [r12_735_TrROS]” here?
**A.** < -1 kcal/mol

**Q.** Which “folding stability dG unfold” value does the source give for “SAGGSAGGSMDLEDMKIKSIYIPDNPIMITFKNKGKHRTRTIPEDNWQILKDLLGDGDITIHPSAGGSAGGS [r12_604_TrROS]” here?
**A.** < -1 kcal/mol

**Q.** For “SAGGSAGGSMEMETYPLNGFTVMVMRNPNDGRETVQIFMPDNGKPIQMPPEDLQQDPDLIDALSAGGSAGGS [r12_817_TrROS]”, which “folding stability dG unfold” value is on record?
**A.** < -1 kcal/mol

**Q.** For “SAGGSAGGSMKKLLVERKPDGTVTVVDVLPADRSAEELPPEELTSFTLLPFESLEEALKKAAASAGGSAGGS [r12_452_JUSTAS]”, which “folding stability dG unfold” value is on record?
**A.** < -1 kcal/mol

**Q.** Which “folding stability dG unfold” value does the source give for “SAGGSAGGSMKYLVRFPEGGSLPFPDGSSVPMKPGEVLEVESPADVEALKKLAPGRDIEVEPVSAGGSAGGS [r12_987_TrMRF]” here?
**A.** < -1 kcal/mol

**Q.** Which “folding stability dG unfold” value does the source give for “SAGGSAGGSMNEVSEEEAIAEAVAKHAPDEPVTYELKDNKKIVVNVNGADPANVSIEVIPIKNSAGGSAGGS [r12_648_JUSTAS]” here?
**A.** < -1 kcal/mol

**Q.** Which “folding stability dG unfold” value does the source give for “SAGGSAGGSNIKDALDNFPPGYQTDVDPNSGTISVRFPDEGWEHQIEIPAEEGKVEINEWKPYSAGGSAGGS [r12_82_TrROS]” here?
**A.** < -1 kcal/mol

**Q.** For “SAGGSAGGSNVEIDTTRTPDRYTVKIRFPDNGKKVEIPFDPGQPPNQAKDRAKELAKKNGIKISAGGSAGGS [r12_764_TrROS]”, which “folding stability dG unfold” value is on record?
**A.** < -1 kcal/mol

**Q.** For “SAGGSAGGSPIPVPLVIFFPDSETTEIVPATPELFEALAAELAALGPVVRRGPERTMTITVPRSAGGSAGGS [r12_292_JUSTAS]”, which “folding stability dG unfold” value is on record?
**A.** < -1 kcal/mol

**Q.** For “SAGGSAGGSPIRRALRYVREQFPPGQPYRVRARNPGNGKEREIEVPWNDPEELDNTKDIEVEPYSAGGSAGG [r6_402_TrROS]”, which “folding stability dG unfold” value is on record?
**A.** < -1 kcal/mol

**Q.** Which “folding stability dG unfold” value does the source give for “SAGGSAGGSPKPMKLRFRNPDNGMPFEVNVDKIDPDGQLRVEIEQPNGKTRKIDNIDNVEIEKSAGGSAGGS [r12_118_TrROS]” here?
**A.** < -1 kcal/mol

**Q.** For “SAGGSAGGSPKWKVEPIGNRIRIMIPDGPYYTARLPDDVKLDLDEGKFKFPPGLEVEPVPLKESAGGSAGGS [r20_158_TrROS]”, which “folding stability dG unfold” value is on record?
**A.** < -1 kcal/mol

**Q.** Which “folding stability dG unfold” value does the source give for “SAGGSAGGSPPPKVKVKKFHRDPPNGYVRANIEFPDKRDIEIQMENMPPDQAEEKAKNLAKKLSAGGSAGGS [r20_181_TrROS]” here?
**A.** < -1 kcal/mol

**Q.** For “SAGGSAGGSRYFIRIELRHPDDGQEYEPTIPINPGQTEEQVKQEIREHHPGADIKDIEIYPMDSAGGSAGGS [r12_738_TrROS]”, which “folding stability dG unfold” value is on record?
**A.** < -1 kcal/mol

**Q.** For “SAGGSAGGSSAITHPDSDAGVAPVATTRSPNATPETVLRDDSPDPRRWILTASGERRVEPLLESAGGSAGGS [r12_205_JUSTAS]”, which “folding stability dG unfold” value is on record?
**A.** < -1 kcal/mol

**Q.** Which “folding stability dG unfold” value does the source give for “SAGGSAGGSSDIKIYEIPEKGEIVVERPPSEKVTIDINNHPLEGSLTPLPGNKYLWKVKIKSPSAGGSAGGS [r12_970_JUSTAS]” here?
**A.** < -1 kcal/mol

**Q.** With “SAGGSAGGSSHMEVEKAAKELSSEVGFEKSSNGPDSVSFTFDPAKPELVRALAEKFGIDLKVESAGGSAGGS [r12_74_JUSTAS]” as the sequence, how does the “folding stability dG unfold” value read?
**A.** < -1 kcal/mol

**Q.** For “SAGGSAGGSSLAEEIARLLGLESETLSESVSPTPRSLTLTRFKPPEDGELIVFYDGEVPTILPSAGGSAGGS [r12_279_JUSTAS]”, which “folding stability dG unfold” value is on record?
**A.** < -1 kcal/mol

**Q.** With “SAGGSAGGSSMPSDVPVDIPVKVTRTVPNGPTSEEELVLSTTRPDASIEEVLEELKKKGWTIESAGGSAGGS [r20_27_JUSTAS]” as the sequence, how does the “folding stability dG unfold” value read?
**A.** < -1 kcal/mol

**Q.** With “SAGGSAGGSSPKRTIEITLPKDASEEELQATANAIAKELGAPNVQVEVSPVPEDYRLVKVIVESAGGSAGGS [r20_208_JUSTAS]” as the sequence, how does the “folding stability dG unfold” value read?
**A.** < -1 kcal/mol

**Q.** With “SAGGSAGGSSPPDATIPREEAEKYVKEKVREENLKAGKPLKKVKKLIVKEDPNSDNVKVTVIESAGGSAGGS [r12_583_JUSTAS]” as the sequence, how does the “folding stability dG unfold” value read?
**A.** < -1 kcal/mol

**Q.** Which “folding stability dG unfold” value does the source give for “SAGGSAGGSSWDEVREIAREARKEGFPMVSIRYDDKNTHQINFEDGPIEPLPNPDNVKIEIMRSAGGSAGGS [r20_44_TrROS]” here?
**A.** < -1 kcal/mol

**Q.** Which “folding stability dG unfold” value does the source give for “SAGGSAGGSSYTLVRVVEHPDSVVEYYKAPDGTVIVKRNDEEIEIPPSVPASSLPEDADVVLESAGGSAGGS [r12_594_JUSTAS]” here?
**A.** < -1 kcal/mol

**Q.** For “SAGGSAGGSTAEEVAEALGFEEAEVTPTGLVEVRKLPNGGYARAYRYTLKLRSPDGTERTFPISAGGSAGGS [r12_221_TrMRF]”, which “folding stability dG unfold” value is on record?
**A.** < -1 kcal/mol

**Q.** With “SAGGSAGGSTAGEAESEEISVEPLPDGPYLVTRSVVRTLPDGSSEVTETVPSIATDPAEIAEASAGGSAGGS [r12_386_JUSTAS]” as the sequence, how does the “folding stability dG unfold” value read?
**A.** < -1 kcal/mol

**Q.** With “SAGGSAGGSVIRIPPDDLRANLKPGMMVMIKDPGKPRMFPWDDLDKLPPNDPVEIEIIPMEPGSAGGSAGGS [r12_501_TrROS]” as the sequence, how does the “folding stability dG unfold” value read?
**A.** < -1 kcal/mol

**Q.** Which “folding stability dG unfold” value does the source give for “SAGGSAGGSVVIPMEDLSNMPWERIRDQIKKSPDPVTITMPNPEGMKRAQDLFKEEGVPITVVSAGGSAGGS [r12_97_TrROS]” here?
**A.** < -1 kcal/mol

**Q.** With “SAGGSAGGSYPFRIKIVNPNGKKIIPIPYQFDPEDGKLEPFTEDQLDEIAKQLGPNFKKIEIYSAGGSAGGS [r12_514_TrROS]” as the sequence, how does the “folding stability dG unfold” value read?
**A.** < -1 kcal/mol

**Q.** With “SAGGSAGGWIEIDPNDGKLEILYPPGMNPDELTDFIEEFGFPFKPKSVEYNPDNGMRKVEFKFKSAGGSAGG [r6_396_TrROS]” as the sequence, how does the “folding stability dG unfold” value read?
**A.** < -1 kcal/mol

**Q.** With “SAGGSAGGYEIPIKIKITNPDNNKPVTFEIPIRYDKDNGRPPSPEQIARELAERSPGFKITEIESAGGSAGG [r6_821_TrROS]” as the sequence, how does the “folding stability dG unfold” value read?
**A.** < -1 kcal/mol

**Q.** Which “folding stability dG unfold” value does the source give for “SAGGSAKPYIVIKGEYENPGKKHDMDIQIPPEDLDNPERARELAEEIKDEMRQQGAPVKDVEIEPVSAGGSA [r15_781_TrROS]” here?
**A.** < -1 kcal/mol

**Q.** Which “folding stability dG unfold” value does the source give for “SAGGSAMPVKIELVERKRDPNSDTYYATVKITNPNKTITLPIKLDVPEEEAEKEVKEKAEEIAKKGSAGGSA [r15_979_JUSTAS]” here?
**A.** < -1 kcal/mol

**Q.** For “SAGGSAPENDPWVWRVKIPYKKKNPNGEPERREREITFPFKSPEDAENFRDALREDGAEIEPVEPMSAGGSA [r15_117_TrROS]”, which “folding stability dG unfold” value is on record?
**A.** < -1 kcal/mol

**Q.** For “SAGGSAPFQIKEPDGKTETFPMNDIPPDLIKNFPDVKITMPGGQERKIPPGQKLSPGGMMTIQIPKSAGGSA [r15_733_TrROS]”, which “folding stability dG unfold” value is on record?
**A.** < -1 kcal/mol

**Q.** Which “folding stability dG unfold” value does the source give for “SAGGSAPIEIEVRLGDKPRTIDIEPNPEGMYPIKVYNDGPGKPKEHMIPPNNLDELKNLDPDRIEISAGGSA [r15_629_TrROS]” here?
**A.** < -1 kcal/mol

**Q.** For “SAGGSARKITIDVQPHPNGEFPINVKIRGPNGEPKKERPFNFDSPQAAKNKLKDFADKNGYEVEIWSAGGSA [r15_242_TrROS]”, which “folding stability dG unfold” value is on record?
**A.** < -1 kcal/mol

**Q.** With “SAGGSATIEIDPPHGKIEIEVNVPVYEKRKDPDGKEEPEPQELPPEEAQEFAKMMADTFAQKLNGKSAGGSA [r15_365_TrROS]” as the sequence, how does the “folding stability dG unfold” value read?
**A.** < -1 kcal/mol

**Q.** For “SAGGSMETIELTINLGSKTITKTEEVSPGREEELIEKIREEGYPEIKVDKITIKPPDGSTERTIGLKSAGGS [r8_219_JUSTAS]”, which “folding stability dG unfold” value is on record?
**A.** < -1 kcal/mol

**Q.** With “SAGGSMKPSELANLIAEKLREKVDPNKTVRIVLEVGEGPVEFEIPSGKKIDIPENVPIKGYKVEVGSAGGSA [r2_391_TrMRF]” as the sequence, how does the “folding stability dG unfold” value read?
**A.** < -1 kcal/mol

**Q.** With “SAGGSMTLYVRLPDRTVEADEVTVPPNGPALVRYRITDPEGEEPEIVVEPEELAELFGLTPEEIEGSAGGSA [r2_262_TrMRF]” as the sequence, how does the “folding stability dG unfold” value read?
**A.** < -1 kcal/mol

**Q.** With “SAGGSMTTTLDFSDDSTTTITTTPTPDSSSVRSITTTDASGNPLSSTTLNFDPQGNVTETTTSSAPSAGGSA [r2_260_JUSTAS]” as the sequence, how does the “folding stability dG unfold” value read?
**A.** < -1 kcal/mol

**Q.** With “SAGGSMVVTTEPDGSVTVTTSASSPEEAKASVIAYLKEQGLKVKSLPVEVPPDGSVTVTLPVEPPLESAGGS [r8_253_JUSTAS]” as the sequence, how does the “folding stability dG unfold” value read?
**A.** < -1 kcal/mol

**Q.** Which “folding stability dG unfold” value does the source give for “SAGGSVRAVEVRLYRPEGDFPVIEIDVEAPASFPDDPELRERAARSVAGPLTRELLEELGLVPIGPSAGGSA [r2_306_TrMRF]” here?
**A.** -0.793 ± 0.52 kcal/mol
